From US20240165255A1 (FRED HUTCHINSON CANCER CENTER, published 2024)

Biological target: folate receptor alpha (FOLR1) on MV4;11 FOLR1+ cells and on CBF/GLIS-transduced CB HSPCs (UniProt P15328 25-234, limits assumed)
Assay: cell-based or functional assay

Sequence of folate receptor alpha (FOLR1) on MV4;11 FOLR1+ cells and on CBF/GLIS-transduced CB HSPCs (P15328 25-234 limits assumed): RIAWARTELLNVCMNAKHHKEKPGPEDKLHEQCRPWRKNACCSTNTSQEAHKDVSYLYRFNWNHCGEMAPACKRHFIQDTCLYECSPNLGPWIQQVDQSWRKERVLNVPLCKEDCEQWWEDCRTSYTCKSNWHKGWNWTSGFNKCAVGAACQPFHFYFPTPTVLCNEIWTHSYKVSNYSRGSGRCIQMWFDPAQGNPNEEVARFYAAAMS

B1: FOLR1-directed site-specific antibody-drug Conjugate P (IgG antibody with VH region SEQ ID NO: 362 and VL region SEQ ID NO: 367, conjugate formula P, n=4) (antibody, V domains shown)
VH: EVQLVESGGGLVQPGGSLRLSCAASGFNIRTQSIHWVRQAPGKGLEWIGDIFPIDGITDYADSVKGRFTISADTSKNTAYLQMNSLRAEDTAVYYCARGSWSWPSGMDYYLDYWGQGTLVTVSS
VL: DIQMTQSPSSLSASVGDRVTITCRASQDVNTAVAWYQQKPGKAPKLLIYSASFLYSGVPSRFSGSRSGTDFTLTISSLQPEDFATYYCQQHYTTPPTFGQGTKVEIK
modifications: para-azidomethylphenylalanine residues substituting for Y180 and F404 of each VH region (so in the source); heavy chain positions), conjugated according to conjugate formula P, n=4 (hemiasterlin drug-linker)
For B1, the “in vitro cytotoxicity IC50 (printed as '1050s') against CBF/GLIS-transduced CB HPSCs (which upregulate FOLR1)” value was 4.2 nM and the “in vitro cytotoxicity IC50 (printed as '1050s') against MV4;11 AML cell line engineered to express FOLR1 (MV4;11 FOLR1+)” value was 0.1 nM.
